Source: article PMC4054823

Molecular target: SERCA (UniProt P04191)
Experiment: time-resolved FRET in reconstituted lipid vesicles
Settings: reference: unphosphorylated labeled PLB; sites S16

phospholamban (PLB) (from UniProt P61015) PKA-phosphorylated, HPLC-purified labeled PLB (pPLB)
other: mole fraction of PLB bound to SERCA (xDA): weaker; reference 0.99 ± 0.01
